The source of these data is patent publication US12049482B2, “Molecular switch-mediated control of engineered cells” (THE GENERAL HOSPITAL CORPORATION, priority 2017, dated 2024).

Assay [1] addresses T1, CRBN (Homo sapiens, UniProt Q96SW2). To be noted: in vitro; cited from earlier work.
Assay [2] addresses T1, CRBN. Kind of assay: Pomalidomide-dependent degradation of IKZF3 degron with A153 substitutions. It is filed as cell-based. More on the design: endogenous in cells. To be noted: wtCRBN-expressing cells, pomalidomide dose-response. The procedure: (§1) Transduced cells were incubated with a range of Pomalidomide concentrations or DMSO for 20 hours. Cells were analyzed by flow cytometry for eGFP and mCherry fluorescence. 1000 mCherry+ cells were analyzed per sample, and the geometric mean of the per-cell eGFP/mCherry ratio was calculated in Flowjo. In Pomalidomide dose titration studies, the EC50 was calculated by non-linear regression in Prism. Experiments were performed in triplicate. In some cases cell surface protein expression was assayed in parallel with the above reporter assay; cells were stained with anti-CD28-BV421 antibody (BD Biosciences 562613) at a 1:50 dilution in FACS buffer (PBS+2% FCS+2 mM EDTA) for 10 minutes on ice. Cells were washed with FACS buffer and analyzed by flow cytometry.

In assay [3] the test system is K562-CD19 cells. Kind of assay: Jurkat degron-tagged CAR-T co-culture with K562-CD19 (Myc-tag, CD69, IL2). It is filed as cell-based, human. The procedure: 100,000 CAR-T Jurkat cells were co-cultured with 20,000 K562 or K562-CD19 cells for 18 hours.
Jurkat T cells lentivirally transduced with the genetic components described herein were co-cultured for 24 hours with K562 cells (human blast crisis Chronic Myeloid Leukemia cell line) lentivirally transduced with an expression vector encoding CD19 (referred to as K562-CD19) (G&P Biosciences LTV-CD19) or isogenic K562 cells lacking the target antigen. Both K562-CD19 and K562 cell lines were engineered to express homogenous high level mCherry expression via transduction with the Jenner lentivirus, allowing discrimination of K562 and Jurkat cells by flow cytometry. Unless otherwise specified, 50,000 Jurkat cells were co-cultured with 10,000 K562 cells in 110 ul of RPMI supplemented with Pen/Strep and 10% fetal calf serum for 24 hours. The supernatant was then harvested for cytokine secretion assays and IL2 concentration in the supernatant was performed according to manufacturer specifications (BD Biosciences 555190). The cells were analyzed by flow cytometry. Expression of the early activation marker CD69 (BioLegend 310910), myc tagged cell surface proteins (Cell Signaling Technologies 2233S), and fluorescent protein markers were assessed.

Assay [4] addresses T2, CRL4^CRBN (Homo sapiens, UniProt Q96SW2).
T2 construct: endogenous in cells; host or cells: Jurkat T cells (ligase endogenous; degron-eGFP reporters lentivirally transduced)
In words: GFP/mCherry reporter assay for degradation of degron-eGFP fusion proteins in Jurkat T cells. It is filed as cell-based. Here is the method:
First, the FMC63 anti-CD19 scFv was exchanged for the CD28 Ig-like V-type extracellular domain. […] Experiments were performed in triplicate.
as §1, with “Transduced cells were incubated with a range of Pomalidomide concentrations or DMSO for 20 hours.” left out
First, the FMC63 anti-CD19 scFv was exchanged for the CD28 Ig-like V-type extracellular domain.
For orientation: Reporter assays use an easily measured gene product as a stand-in for the process of interest.

For assay [5], the system named is IKZF3aa130-189. In words: BRET assay, dimerization of IKZF3aa130-189 with CRBN or minCRBN variants. It is filed as cell-based, human. To be noted: pomalidomide dose-response. Here is the method: Specifically, CRBN deletion variants were engineered to retain binding to Pom/IKZF3 but not DDB1/CUL4. Four deletion variants were generated in CRBN that removed the DDB1-binding domain, as shown in the middle image (NTD is the N-terminal domain; LLP1 is Lon-like protease domain 1 (split into LLP1-N and LLP1-C regions); TBD is the Thalidomide binding domain). At middle, BRET assays were performed upon 293T cells harboring bialleleic CRISPR/Cas9 disruption of endogenous CRBN (293T-CRBNΔe5), to assess dimerization between IKZF3aa130-189 and CRBN or minCRBN variants (dose-response data shown are CRBN, minCRBN1, minCRBN2, minCRBN3 and minCRBN4). […] Pomalidomide-dependent dimerization was observed between IKZF3aa130-189-HaloTag and CRBN-Nanoluciferase (NLuc) or minCRBN2-4-NLuc. […] 1 day after transfection, cells were exposed to 1 μM pomalidomide for the number of hours indicated and GFP and mCherry fluorescence was measured by flow cytometry (eGFPmCherry levels were detected as 0.5 or less for the CRBN trace).
(§2) 293T cells were co-transfected with pFC14K and pFC32K plasmids expressing IKZF3-HaloTag and CRBN-Nanoluciferase fusion proteins and incubated overnight. Cells were then trypsinized and seeded into 96 well plates, at 40,000 cells per well. The BRET assay was performed per manufacturer's instructions (Promega™). In brief, cells were incubated for 2 hours with varying concentrations of Pomalidomide or DMSO, 10 μM MG132, and 100 nM HaloTag NanoBRET 618 Ligand. NanoBRET Nano-Glo substrate was added and donor (460 nm) and acceptor (618 nm) emission were measured within 10 minutes (EnVision, Perkin Elmer). Mean corrected milliBRET units (mBU) was calculated.
Tested forms of minimal CRBN included minCRBN1, minCRBN2, minCRBN3 and minCRBN4, each of which were aligned against the wild-type CRBN (FIG. 1; all tested minCRBNs lacked the DDB1-binding domain—minCRBN1 comprised amino acids 339-442 of CRBN (including the TBD); minCRBN2 comprised amino acids 317-442 of CRBN (including TBD and an N-terminal extended sequence relative to minCRBN1); minCRBN3 included all CRBN sequence other than amino acids 194-207 (deletion of the DDB1-binding domain); and minCRBN4 included all sequences other than amino acids 187-260 (deletion of the DDB1-binding domain)).
A general note: BRET reads energy transfer from a luciferase to a nearby fluorophore.

The test system of assay [6] is IKZF3 degron-GFP. In words: eGFP/mCherry reporter, IKZF3 degron degradation with co-transfected CRBN or minCRBN1-4 in 293T-CRBNΔe5 cells. It is filed as cell-based, human. The note with it: 1 μM pomalidomide, time course in hours, 293T-CRBNΔe5 cells. The procedure:
Specifically, CRBN deletion variants were engineered to retain binding to Pom/IKZF3 but not DDB1/CUL4. Four deletion variants were generated in CRBN that removed the DDB1-binding domain, as shown in the middle image (NTD is the N-terminal domain; LLP1 is Lon-like protease domain 1 (split into LLP1-N and LLP1-C regions); TBD is the Thalidomide binding domain). At middle, BRET assays were performed upon 293T cells harboring bialleleic CRISPR/Cas9 disruption of endogenous CRBN (293T-CRBNΔe5), to assess dimerization between IKZF3aa130-189 and CRBN or minCRBN variants (dose-response data shown are CRBN, minCRBN1, minCRBN2, minCRBN3 and minCRBN4). […] 1 day after transfection, cells were exposed to 1 μM pomalidomide for the number of hours indicated and GFP and mCherry fluorescence was measured by flow cytometry (eGFPmCherry levels were detected as 0.5 or less for the CRBN trace).
Transduced cells were incubated with a range of Pomalidomide concentrations or DMSO for 20 hours. Cells were analyzed by flow cytometry for eGFP and mCherry fluorescence. 1000 mCherry+ cells were analyzed per sample, and the geometric mean of the per-cell eGFP/mCherry ratio was calculated in Flowjo. In Pomalidomide dose titration studies, the EC50 was calculated by non-linear regression in Prism. […] Cells were washed with FACS buffer and analyzed by flow cytometry.

Assay [7] relates to IKZF3 A153M. In words: BRET, IKZF3 A153 substitutions with CRBN, CRBN V388A or CRBN I371A. It is filed as cell-based, human. The note with it: 293T cells, 2 hours. Here is the method: as §2

Entries after “also recorded” stand apart in the source; their conditions may differ.

IKZF3 A153M, sequence (Q9UKT9 130-189 A153M limits assumed): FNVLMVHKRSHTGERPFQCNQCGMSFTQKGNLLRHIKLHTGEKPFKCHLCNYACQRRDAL
IKZF3aa130-189, sequence (Q9UKT9 130-189 limits assumed, one chain of several): as the sequence (Q9UKT9 130-189 A153M limits assumed) above, with M24A counted along it
T2 sequence (Q16531 whole entry partner, one chain of several): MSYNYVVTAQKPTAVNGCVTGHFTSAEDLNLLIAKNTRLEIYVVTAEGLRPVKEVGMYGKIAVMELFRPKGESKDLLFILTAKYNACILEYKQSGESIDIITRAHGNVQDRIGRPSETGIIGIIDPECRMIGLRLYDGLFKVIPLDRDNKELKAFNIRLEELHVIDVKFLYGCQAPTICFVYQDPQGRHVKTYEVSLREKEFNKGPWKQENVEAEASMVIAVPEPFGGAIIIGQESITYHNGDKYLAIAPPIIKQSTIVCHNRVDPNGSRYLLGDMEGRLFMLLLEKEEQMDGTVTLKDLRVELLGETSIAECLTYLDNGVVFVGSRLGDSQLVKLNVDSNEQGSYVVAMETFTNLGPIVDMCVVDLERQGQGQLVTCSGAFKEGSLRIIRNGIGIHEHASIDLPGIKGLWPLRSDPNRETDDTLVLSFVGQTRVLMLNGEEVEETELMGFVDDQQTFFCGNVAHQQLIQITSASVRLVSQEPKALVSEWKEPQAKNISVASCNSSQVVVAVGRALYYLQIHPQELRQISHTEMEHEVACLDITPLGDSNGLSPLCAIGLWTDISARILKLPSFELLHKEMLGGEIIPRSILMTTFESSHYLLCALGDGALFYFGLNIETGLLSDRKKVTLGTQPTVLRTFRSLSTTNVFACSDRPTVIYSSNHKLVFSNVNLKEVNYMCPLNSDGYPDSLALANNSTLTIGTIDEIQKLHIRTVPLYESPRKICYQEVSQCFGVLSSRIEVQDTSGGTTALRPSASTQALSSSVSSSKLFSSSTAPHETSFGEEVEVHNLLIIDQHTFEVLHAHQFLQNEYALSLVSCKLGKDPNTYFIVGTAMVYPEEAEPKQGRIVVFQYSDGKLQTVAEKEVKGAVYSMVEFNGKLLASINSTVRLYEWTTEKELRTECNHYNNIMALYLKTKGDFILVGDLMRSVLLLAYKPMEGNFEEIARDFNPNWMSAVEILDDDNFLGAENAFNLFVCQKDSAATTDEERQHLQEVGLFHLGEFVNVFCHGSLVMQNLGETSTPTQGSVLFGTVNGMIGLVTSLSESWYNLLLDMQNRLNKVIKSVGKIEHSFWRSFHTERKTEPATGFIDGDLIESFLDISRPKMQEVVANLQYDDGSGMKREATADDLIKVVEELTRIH
T2 sequence (Q13619 whole entry partner, one chain of several): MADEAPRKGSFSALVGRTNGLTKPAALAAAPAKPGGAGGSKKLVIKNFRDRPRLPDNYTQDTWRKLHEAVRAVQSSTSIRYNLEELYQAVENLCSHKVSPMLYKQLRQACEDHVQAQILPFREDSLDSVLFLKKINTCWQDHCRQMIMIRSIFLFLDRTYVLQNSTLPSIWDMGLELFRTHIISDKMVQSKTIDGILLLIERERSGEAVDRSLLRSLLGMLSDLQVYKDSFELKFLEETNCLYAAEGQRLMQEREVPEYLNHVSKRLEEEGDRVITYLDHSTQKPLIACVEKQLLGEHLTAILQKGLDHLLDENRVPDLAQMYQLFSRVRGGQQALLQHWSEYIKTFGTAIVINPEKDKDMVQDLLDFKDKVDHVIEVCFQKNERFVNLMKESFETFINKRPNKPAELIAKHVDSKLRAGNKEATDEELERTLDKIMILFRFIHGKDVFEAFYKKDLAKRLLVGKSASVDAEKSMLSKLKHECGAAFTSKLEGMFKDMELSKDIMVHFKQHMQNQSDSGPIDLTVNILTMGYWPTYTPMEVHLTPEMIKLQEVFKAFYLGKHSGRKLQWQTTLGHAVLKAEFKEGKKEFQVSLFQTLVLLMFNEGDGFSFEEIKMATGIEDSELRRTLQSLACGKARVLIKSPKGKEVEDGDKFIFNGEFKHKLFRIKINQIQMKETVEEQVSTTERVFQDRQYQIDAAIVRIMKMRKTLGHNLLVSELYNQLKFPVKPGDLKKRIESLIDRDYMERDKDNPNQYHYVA
T2 sequence (P62877 whole entry partner, one chain of several): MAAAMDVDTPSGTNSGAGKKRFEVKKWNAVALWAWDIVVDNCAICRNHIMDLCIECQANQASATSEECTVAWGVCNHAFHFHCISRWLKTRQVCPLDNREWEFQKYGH
T2 sequence (Q9UKT9 130-189 partner limits assumed, one chain of several): as the sequence (Q9UKT9 130-189 A153M limits assumed) above, with M24A counted along it
IKZF3 degron-GFP, sequence (Q9UKT9 130-189 limits assumed, one chain of several): as the sequence (Q9UKT9 130-189 A153M limits assumed) above, with M24A counted along it

Turning to `Nc1cccc2c1C(=O)N(C1CCC(=O)NC1=O)C2=O` (stereo not shown) [pomalidomide, Pomalidomide], the “binding to CRBN” value in assay [1] is “binds to CRBN in vitro”. For the molecule `O=C1CCC(N2C(=O)c3ccccc3C2=O)C(=O)N1` (stereo not shown) [thalidomide, Thalidomide], the “binding to CRBN” value in assay [1] is listed as “binds to CRBN in vitro”.

Take “A153D: IKZF3 degron polypeptide, amino acids 130-189 A153D, SEQ ID NO: 43”: in assay [2], the “pomalidomide-dependent degradation of substituted IKZF3 degron” value is given as “most effective at disrupting pomalidomide-dependent IKZF3 degron degradation”. Same read-out and setting: the value for “IKZF3 A153M: IKZF3 degron polypeptide, amino acids 130-189 A153M, SEQ ID NO: 36” was “disrupted binding and degradation by CRBN”.

Consider “d913: Hybrid degron, IKZF3 aa 130-145 + ZFP91 aa 400-410 + IKZF3 aa 157-189, SEQ ID NO: 95 (FNVLMVHKRSHTGERPLQCEICGFTCRQKGNLLRHIKLHTGEKPFKCHLCNYACQRRDAL)”, for which the “drug control over CAR protein expression, activation and IL2 secretion” value in assay [3] (Jurkat CAR-T with K562 or K562-CD19, 18 hours) is “more robust control over CAR protein expression, activation, and cytokine secretion than the endogenous IKZF3 degron”. In addition, the “cell surface CAR expression (anti-Myc tag)” value in assay [3] (Jurkat T cells, no drug (tonic)) is “lower tonic CAR cell surface protein abundance versus the control CAR”. In general, EC50 refers to the concentration needed to bring the measured effect to its halfway point. Read a high EC50 as a less potent agent. Take “degron: IKZF3 degron polypeptide, amino acids 130-189, SEQ ID NO: 5, as eGFP fusion”: the “degradation of degron-eGFP protein” value in assay [4] (by 1 hour after addition of 1 μM pomalidomide) was about 90%. This molecule also had an EC50 in assay [4] (nM pomalidomide, Jurkat T cells) of 0.4 nM.

B1: minCRBN1: Minimal CRBN, amino acids 339-442 of CRBN (including the TBD), SEQ ID NO: 1 (protein)
chain: SLSLCGPMAAYVNPHGYVHETLTVYKACNLNLIGRPSTEHSWFPGYAWTVAQCKICASHIGWKFTATKKDMSPQKFWGLTRSALLPTIPDTEDEISPDKVILCL
In the case of B1, the “pomalidomide-dependent dimerization with IKZF3 degron (mBU)” value (shortened to “pomalidomide-dependent dimerization”) in assay [5] is reported as “dose-dependence was only not observed”.

B2: CRBN: Native Homo sapiens CRBN polypeptide, SEQ ID NO: 6; positive control (protein, listed as Homo sapiens)
chain: MAGEGDQQDAAHNMGNHLPLLPAESEEEDEMEVEDQDSKEAKKPNIINFDTSLPTSHTYLGADMEEFHGRTLHDDDSCQVIPVLPQVMMILIPGQTLPLQLFHPQEVSMVRNLIQKDRTFAVLAYSNVQEREAQFGTTAEIYAYREEQDFGIEIVKVKAIGRQRFKVLELRTQSDGIQQAKVQILPECVLPSTMSAVQLESLNKCQIFPSKPVSREDQCSYKWWQKYQKRKFHCANLTSWPRWLYSLYDAETLMDRIKKQLREWDENLKDDSLPSNPIDFSYRVAACLPIDDVLRIQLLKIGSAIQRLRCELDIMNKCTSLCCKQCQETEITTKNEIFSLSLCGPMAAYVNPHGYVHETLTVYKACNLNLIGRPSTEHSWFPGYAWTVAQCKICASHIGWKFTATKKDMSPQKFWGLTRSALLPTIPDTEDEISPDKVILCL
Turning to B2, the “pomalidomide-dependent dimerization” value in assay [5] is reported as “pomalidomide-dependent interactions”. In addition, the “eGFP/mCherry level of IKZF3 degron-GFP reporter” value in assay [6] is at most 0.5; in assay [6] (listed as wild-type CRBN), “successfully promoted degradation of the IKZF3 degron”.

B3: CRBN V388A: CRBN polypeptide with V388A substitution (protein, UniProt Q96SW2 1-442, looked up, variant V388A)
Protein cereblon: MAGEGDQQDAAHNMGNHLPLLPAESEEEDEMEVEDQDSKEAKKPNIINFDTSLPTSHTYLGADMEEFHGRTLHDDDSCQVIPVLPQVMMILIPGQTLPLQLFHPQEVSMVRNLIQKDRTFAVLAYSNVQEREAQFGTTAEIYAYREEQDFGIEIVKVKAIGRQRFKVLELRTQSDGIQQAKVQILPECVLPSTMSAVQLESLNKCQIFPSKPVSREDQCSYKWWQKYQKRKFHCANLTSWPRWLYSLYDAETLMDRIKKQLREWDENLKDDSLPSNPIDFSYRVAACLPIDDVLRIQLLKIGSAIQRLRCELDIMNKCTSLCCKQCQETEITTKNEIFSLSLCGPMAAYVNPHGYVHETLTVYKACNLNLIGRPSTEHSWFPGYAWTAAQCKICASHIGWKFTATKKDMSPQKFWGLTRSALLPTIPDTEDEISPDKVILCL
With B3, the “pomalidomide-dependent binding with IKZF3 A153M” value in assay [7] (10 μM MG132, 1 μM pomalidomide and dose-response) is given as “restored binding affinity with IKZF3 A153M; also recorded: greatest restoration of pomalidomide-dependent binding”. Besides, the “mBU fold change at 1 μM Pomalidomide/DMSO” value in assay [7] (10 μM MG132, mutant versus wild type CRBN) is “increased the mBU fold change versus wild type CRBN”.

B4: minCRBN2: Minimal CRBN, amino acids 317-442 of CRBN, SEQ ID NO: 2 (protein)
chain: CTSLCCKQCQETEITTKNEIFSLSLCGPMAAYVNPHGYVHETLTVYKACNLNLIGRPSTEHSWFPGYAWTVAQCKICASHIGWKFTATKKDMSPQKFWGLTRSALLPTIPDTEDEISPDKVILCL
For the molecule B4, the “pomalidomide-dependent dimerization” value in assay [5] is given as “pomalidomide-dependent interactions”.

B5: minCRBN4: All CRBN sequences other than amino acids 187-260 (deletion of the DDB1-binding domain), SEQ ID NO: 4 (protein)
chain: MAGEGDQQDAAHNMGNHLPLLPESEEEDEMEVEDQDSKEAKKPNIINFDTSLPTSHTYLGADMEEFHGRTLHDDDSCQVIPVLPQVMMILIPGQTLPLQLFHPQEVSMVRNLIQKDRTFAVLAYSNVQEREAQFGTTAEIYAYREEQDFGIEIVKVKAIGRQRFKVLELRTQSDGIQQAKVQILPLREWDENLKDDSLPSNPIDFSYRVAACLPIDDVLRIQLLKIGSAIQRLRCELDIMNKCTSLCCKQCQETEITTKNEIFSLSLCGPMAAYVNPHGYVHETLTVYKACNLNLIGRPSTEHSWFPGYAWTVAQCKICASHIGWKFTATKKDMSPQKFWGLTRSALLPTIPDTEDEISPDKVILCL
In the case of B5, the “pomalidomide-dependent dimerization” value in assay [5] is listed as “pomalidomide-dependent interactions”.
